# In the Immune Epitope Database (IEDB):
# Assays:
# HLA-B*44:02 = test: IEDB peptide-MHC binding, purified MHC/competitive/radioactivity; filed as Kd, often an IC50 or EC50 that approximates it; ≥ and ≤ were set here for values at or beyond the usual limits of such assays
# HLA-A*24:02 = test: as above
# HLA-A*29:02 = test: as above
# HLA-A*23:01 = test: as above
# HLA-A*01:01 [1] = test: IEDB peptide-MHC binding, purified MHC/direct/fluorescence; filed as Kd, often an IC50 or EC50 that approximates it; ≥ and ≤ were set here for values at or beyond the usual limits of such assays
# HLA-A*01:01 [2] = test: IEDB peptide-MHC binding, purified MHC/competitive/radioactivity; filed as Kd, often an IC50 or EC50 that approximates it; ≥ and ≤ were set here for values at or beyond the usual limits of such assays
# HLA-A*26:01 = test: as above
# HLA-A*30:01 = test: as above
# HLA-A*30:02 = test: as above
# HLA-A*69:01 = test: IEDB peptide-MHC binding, purified MHC/direct/fluorescence; filed as Kd, often an IC50 or EC50 that approximates it; ≥ and ≤ were set here for values at or beyond the usual limits of such assays
# HLA-A*02:01 = test: as above; conditions: source organism: Vibrio vulnificus
# HLA-A*02:06 = test: IEDB peptide-MHC binding, purified MHC/competitive/radioactivity; filed as Kd, often an IC50 or EC50 that approximates it; ≥ and ≤ were set here for values at or beyond the usual limits of such assays
# HLA-A*03:01 [3] = test: IEDB peptide-MHC binding, purified MHC/direct/fluorescence; filed as Kd, often an IC50 or EC50 that approximates it; ≥ and ≤ were set here for values at or beyond the usual limits of such assays; conditions: source organism: Mycobacterium tuberculosis
# HLA-A*03:01 [4] = test: IEDB peptide-MHC binding, purified MHC/competitive/radioactivity; filed as Kd, often an IC50 or EC50 that approximates it; ≥ and ≤ were set here for values at or beyond the usual limits of such assays; conditions: source organism: Dengue virus 1 Brazil/97-11/1997
# HLA-B*15:01 = test: IEDB peptide-MHC binding, purified MHC/direct/fluorescence; filed as Kd, often an IC50 or EC50 that approximates it; ≥ and ≤ were set here for values at or beyond the usual limits of such assays; conditions: source organism: Mycobacterium tuberculosis variant bovis
# HLA-A*02:03 = test: IEDB peptide-MHC binding, purified MHC/competitive/radioactivity; filed as Kd, often an IC50 or EC50 that approximates it; ≥ and ≤ were set here for values at or beyond the usual limits of such assays; conditions: source organism: Vaccinia virus WR
# HLA-A*02:02 = test: as above; conditions: source organism: Vaccinia virus WR
# [5] = source organism: Dengue virus 3 Martinique/1243/1999
# [6] = source organism: Mammarenavirus guanaritoense
# [7] = source organism: Dengue virus 1 Brazil/97-11/1997
# [8] = source organism: Vaccinia virus WR
# [9] = source organism: Dengue virus 2 Jamaica/1409/1983
# [10] = source organism: Dengue virus 4 Philippines/H241/1956
# [11] = source organism: Lassa virus Josiah
sequence,measurement,setting,value
NEWITDFAG,Kd,HLA-B*44:02; [5],6550 nM
NFGTFYEHI,Kd,HLA-A*24:02; [6],1950 nM
same,Kd,HLA-A*29:02; [6],400 nM
same,Kd,HLA-A*23:01; [6],451 nM
NLITCNDHY,Kd,HLA-A*01:01 [1]; source organism: Mammarenavirus juninense,≥ 20000 nM
NMDRAVKLY,Kd,HLA-A*01:01 [1]; source organism: Influenza A virus (A/Hong Kong/488/97(H5N1)),584 nM
PTSEIQLTDY,Kd,HLA-A*01:01 [2]; [7],255 nM
same,Kd,HLA-A*26:01; [7],≥ 69700 nM
QGKRTLTPQP,Kd,HLA-A*30:01; [5],1270 nM
QNYVCKHTY,Kd,HLA-A*30:02; [5],≥ 76900 nM
QSDTVFDYY,Kd,HLA-A*24:02; [8],≥ 72700 nM
same,Kd,HLA-A*23:01; [8],≥ 32500 nM
QVGTYGLNTF,Kd,HLA-A*23:01; [9],790 nM
QWFVERNMVI,Kd,HLA-A*24:02; [5],121 nM
same,Kd,HLA-A*23:01; [5],111 nM
RAIASMIMY,Kd,HLA-A*30:01; [8],71.1 nM
RLSDPRFSQ,Kd,HLA-A*69:01; source organism: Vibrio vulnificus,121 nM
same,Kd,HLA-A*02:01,≥ 20000 nM
RRRTAGMII,Kd,HLA-A*30:01; source organism: Dengue virus 2 Peru/IQT2913/1996,4830 nM
RSKAFSNCY,Kd,HLA-A*01:01 [1]; source organism: Influenza A virus (A/duck/Ontario/05/00 (H3N2)),≥ 20000 nM
RSKNTIIIA,Kd,HLA-A*30:01; [8],0.163 nM
RTIMAVLFV,Kd,HLA-A*30:01; [10],135 nM
same,Kd,HLA-A*02:06; [10],19.4 nM
RYMGEDGCWY,Kd,HLA-A*24:02; [5],828 nM
same,Kd,HLA-A*30:02; [5],≥ 69700 nM
SITLATGPLT,Kd,HLA-A*30:01; [7],3930 nM
SKIPGGNMY,Kd,HLA-A*30:02; [7],2450 nM
SSVNMISRM,Kd,HLA-A*26:01; [9],1340 nM
STVSQLAKRF,Kd,HLA-A*26:01; source organism: Dengue virus 1 Nauru/West Pac/1974,3590 nM
TFIRSTMPL,Kd,HLA-A*23:01; [10],255 nM
TSEIQLTDY,Kd,HLA-A*01:01 [2]; [7],323 nM
TSETFSMGL,Kd,HLA-A*01:01 [2]; [10],7690 nM
TSRNNHLPA,Kd,HLA-A*30:01; source organism: Vaccinia virus Copenhagen,15.2 nM
TTMRGAKRM,Kd,HLA-A*26:01; [9],8190 nM
TWLVHKQWF,Kd,HLA-A*24:02; [10],302 nM
same,Kd,HLA-A*23:01; [10],282 nM
VDYMPVMKRY,Kd,HLA-A*30:02; [10],76.4 nM
VLCPYMPKV,Kd,HLA-A*69:01; source organism: West Nile virus,1610 nM
VLIDAGLPK,Kd,HLA-A*03:01 [3],319 nM
VTARWLWGFL,Kd,HLA-A*01:01 [2]; source organism: Dengue virus 1 Singapore/S275/1990,8660 nM
VVRVQRPAK,Kd,HLA-A*30:01; [7],22.4 nM
same,Kd,HLA-A*03:01 [4],126 nM
WQGDTGITY,Kd,HLA-B*15:01,799 nM
YDQENPYRTW,Kd,HLA-B*44:02; [10],156 nM
YLAENTFVV,Kd,HLA-A*69:01; source organism: Mycobacterium tuberculosis,15.7 nM
YQPSSGCYI,Kd,HLA-A*24:02; [11],7220 nM
same,Kd,HLA-A*29:02; [11],14500 nM
same,Kd,HLA-A*23:01; [11],5410 nM
YSQVNPLTL,Kd,HLA-A*01:01 [2]; [7],1010 nM
YVLFVKKML,Kd,HLA-A*02:03,12000 nM
same,Kd,HLA-A*02:02,≥ 31100 nM
same,Kd,HLA-A*02:06; [8],2540 nM
